Assay results: patent US10227575B2, “Multi-domain enzymes having cutinase activity, compositions comprising same and uses thereof” (OZYMES, priority 2015, dated 2019)
Marks after values point to notes of the source that are not given here.

What was measured:
[1] = Activity of crude culture supernatants from bioreactor; type: biochemical; settings: pNP-dodecanoate
[2] = Specific activity of purified enzymes (standard esterase assay); type: biochemical
Description: In summary, using different techniques for enzyme purification, pure enzyme preparations were obtained and tested for their activity towards a standard esterase substrate, pNP-palmitate. Enzymatic activities of the purified variants are summarized below:
(§1) Esterase activity was determined by monitoring the formation of para-nitrophenol (pNP) at 410 nm from various pNP-esters using a Beckman UV spectrophotometer (model DU 640). Substrates were completely dissolved in 2-propanol (8 mM) and were then added to 50 mM Tris/HCl buffer pH 8.0 to give a final substrate concentration of 0.8 mM. The reaction (1 mL) was started by adding an appropriate amount of enzyme. One enzyme unit (U) was defined as the amount of enzyme that produced 1 μmol of product (pNP) per min; specific activity was expressed as U/mg protein. A molar extinction coefficient of 15 mM^−1 cm^−1 was used for the calculation.

[3] = Circular dichroism spectroscopy, melting temperature and refolding; type: physicochemical
Description: CD spectra were recorded using a Jasco™ J-815 spectrometer operating with the Spectra™ Manager software. Temperature was controlled using a Jasco™ PFD-452S peltier unit. Previously purified protein solutions were adjusted to 0.15 mg/mL (if quantities allowed for) and CD spectra were recorded between 190 and 250 nm using a Quartz cuvette (ID=0.1 cm). Blanks containing buffer only were prepared and used as baseline. Temperature dependent protein unfolding was monitored at 222 nm with thermo profiles ranging from 20 up to 90° C. (2° C. min-1). Samples were kept for 5 min at the respective maximum temperature and protein refolding was monitored using the same conditions as above reversing the thermo profiles. Thermodynamic parameters (Tm, ΔH, ΔS, ΔG) for the folding/unfolding process, if applicable, were calculated using the Spectra™ Manager software.

[4] = Enzyme substrate profiles, esterase assays; type: biochemical; settings: highest activity towards a specific substrate set to 100%
Description: as §1

[5] = Temperature optimum; type: biochemical; settings: for Relative activity at temperature: highest activity set to 100%
Description: For estimation of the temperature optimum, buffer containing pNP-palmitate (see esterase assay in Example 20.1) was pre-incubated to reach the desired temperature, enzyme was then added, and the formation of pNP was assayed. For this experiment, Tris/HCl buffer was replaced with sodium phosphate buffer (50 mM, pH 8.0) to avoid a pH shift at the different temperatures.

[6] = Enzymatic activity in the presence of organic solvents; type: biochemical; settings: buffer only = 100%
Description: Enzyme activity in various organic solvents was studied over a concentration range of 1-30% at room temperature. pNP-palmitate was completely dissolved in 2-propanol (8 mM) and then added to 50 mM Tris/HCl buffer pH 8.0 containing up to 30% organic solvent to give a final substrate concentration of 0.8 mM. The reaction was started by addition of enzyme and the formation of pNP was assayed as described above in Example 20.1.

[7] = pH dependence of enzymes; type: biochemical; settings: for Relative activity (%): highest activity = 100%
Description: The influence of different pH values (from 5.5 to 11) on the activities of the purified enzymes was examined in three buffer systems (sodium acetate, sodium phosphate, and Tris-HCl) at room temperature using pNP-palmitate (see esterase assay in Example 20.1) as a substrate at a final substrate concentration of 0.8 mM.

[8] = Stability in the presence of hydrogen peroxide; type: physicochemical
Description: as §1
Purified cutinases were incubated at room temperature in the presence of 0, 30, 100, 300, 1500, and 3000 ppm of hydrogen peroxide. Residual enzyme activity was assayed (see Example 20.1) after 1, 2, 3, and 7 days of incubation.

B1: Am-Kr: chimeric variant: AmCUT fused to the T/P-rich linker domain and polymer binding domain of KrCUT, SEQ ID NO: 27 (protein)
chain: ACSDLEIVFARGSGEAPGLGITGTPLVSDVKSALSSASVSSYAVDYAASYDQTSAGPGATDMSNHIKSTAAACPDTKFAIGGYSQGASVTDIAIGIRTYLGTGQTIPTELAPRVVAVIAFGNPLGLYGQTIKTASPTYGPKSLEFCNRGDNVCGGTGTGPGYGHLSYARDGSVDQAAAFIAKQYNASAGTPTTPTPTPTPTPVPTTCVRDSTRDHVAADRAVSLYGRAYARGSRDSLGATSSYNVVSLQQVEGGWRLVTAC
modifications: YebF carrier; Am-Kr variant
Question: What does the source list for B1?
Answer: activity of crude culture supernatant [1]: 0.5 U/mL; Enzymatic activity of the purified variant ([2]; pNP-palmitate): 174 ± 11 U/mg; Spec. Act. (U/mg) ([2]; towards pNP-palmitate (standard assay)): 174 ± 11 U/mg; refolding ([3]; CD at 222 nm): did not show any refolding; melting temperature (Tm) ([3]; CD at 222 nm, unfolding): 55.0 °C; Tm (° C.) ([3]; estimated using CD-spectroscopy): 55 ± 1 °C; Relative activity, pNP-acetate (C2) [4]: 9 ± 1%; Relative activity, pNP-butyrate (C4) [4]: 75 ± 8%; Relative activity, pNP-caprylate (C8) [4]: 100* %; Relative activity, pNP-decanoate (C10) [4]: 72 ± 2%; Relative activity, pNP-myristate (C14) [4]: 46 ± 8%; Relative activity, pNP-palmitate (C16) [4]: 49 ± 6%; Temp. opt. (° C.) [5]: 45 °C; Relative activity at temperature ([5]; 20 ° C.): 50 ± 2%; Relative activity at temperature ([5]; 25 ° C.): 61 ± 2%; Relative activity at temperature ([5]; 30 ° C.): 69 ± 2%; Relative activity at temperature ([5]; 35 ° C.): 78 ± 1%; Relative activity at temperature ([5]; 40 ° C.): 87 ± 2%; Relative activity at temperature ([5]; 45 ° C.): 100* %; Relative activity at temperature ([5]; 50 ° C.): 81 ± 10%; Relative activity at temperature ([5]; 55 ° C.): 37 ± 5%; Relative activity at temperature ([5]; 60 ° C.): 9 ± 1%; Relative enzymatic activity (%) ([6]; 2-Propanol 5% (v/v)): 70 ± 10%; Relative enzymatic activity (%) ([6]; 2-Propanol 10% (v/v)): 23 ± 2%; Relative enzymatic activity (%) ([6]; Acetone 1% (v/v)): 118 ± 1%; Relative enzymatic activity (%) ([6]; Acetone 5% (v/v)): 90 ± 14%; Relative enzymatic activity (%) ([6]; Acetone 10% (v/v)): 74 ± 7%; Relative enzymatic activity (%) ([6]; Dimethyl sulfoxide (DMSO) 10% (v/v)): 114 ± 2%; Relative enzymatic activity (%) ([6]; Dimethyl sulfoxide (DMSO) 20% (v/v)): 90 ± 8%; Relative enzymatic activity (%) ([6]; Dimethyl sulfoxide (DMSO) 30% (v/v)): 60 ± 5%; Relative enzymatic activity (%) ([6]; Dimethylformamide (DMF) 5% (v/v)): 120 ± 11%; Relative enzymatic activity (%) ([6]; Methanol 10% (v/v)): 87 ± 10%; Relative enzymatic activity (%) ([6]; Methanol 20% (v/v)): 60 ± 13%; pH opt. [7]: 9.5; Relative activity (%) ([7]; pH 6.5, sodium phosphate buffer): 23 ± 2%; Relative activity (%) ([7]; pH 7.0, sodium phosphate buffer): 46 ± 3%; Relative activity (%) ([7]; pH 7.5, sodium phosphate buffer): 54 ± 3%; Relative activity (%) ([7]; pH 8.0, Tris/HCl): 84 ± 2%; Relative activity (%) ([7]; pH 8.5, Tris/HCl): 88 ± 9%; Relative activity (%) ([7]; pH 9.0, Tris/HCl): 91 ± 5%; Relative activity (%) ([7]; pH 9.5, Tris/HCl): 100* %; Relative activity (%) ([7]; pH 10, Tris/HCl): 47 ± 4%; Relative activity (%) ([7]; pH 10.5, Tris/HCl): 10 ± 1%; Relative activity (%) after exposure to hydrogen peroxide ([8]; H2O2 30 ppm, Day 0): 92 ± 3%; Relative activity (%) after exposure to hydrogen peroxide ([8]; H2O2 30 ppm, Day 1): 90 ± 15%; Relative activity (%) after exposure to hydrogen peroxide ([8]; H2O2 30 ppm, Day 2): 82 ± 8%; Relative activity (%) after exposure to hydrogen peroxide ([8]; H2O2 30 ppm, Day 3): 71 ± 4%; Relative activity (%) after exposure to hydrogen peroxide ([8]; H2O2 30 ppm, Day 7): 63 ± 5%; Relative activity (%) after exposure to hydrogen peroxide ([8]; H2O2 100 ppm, Day 0): 101 ± 3%; Relative activity (%) after exposure to hydrogen peroxide ([8]; H2O2 100 ppm, Day 1): 97 ± 5%; Relative activity (%) after exposure to hydrogen peroxide ([8]; H2O2 100 ppm, Day 2): 83 ± 2%; Relative activity (%) after exposure to hydrogen peroxide ([8]; H2O2 100 ppm, Day 3): 73 ± 5%; Relative activity (%) after exposure to hydrogen peroxide ([8]; H2O2 100 ppm, Day 7): 69 ± 4%; Relative activity (%) after exposure to hydrogen peroxide ([8]; H2O2 300 ppm, Day 0): 100 ± 9%; Relative activity (%) after exposure to hydrogen peroxide ([8]; H2O2 300 ppm, Day 1): 88 ± 5%; Relative activity (%) after exposure to hydrogen peroxide ([8]; H2O2 300 ppm, Day 2): 83 ± 2%; Relative activity (%) after exposure to hydrogen peroxide ([8]; H2O2 300 ppm, Day 3): 72 ± 10%; Relative activity (%) after exposure to hydrogen peroxide ([8]; H2O2 300 ppm, Day 7): 61 ± 4%; Relative activity (%) after exposure to hydrogen peroxide ([8]; H2O2 1,500 ppm, Day 0): 91 ± 8%; Relative activity (%) after exposure to hydrogen peroxide ([8]; H2O2 1,500 ppm, Day 1): 97 ± 9%; Relative activity (%) after exposure to hydrogen peroxide ([8]; H2O2 1,500 ppm, Day 2): 75 ± 15%; Relative activity (%) after exposure to hydrogen peroxide ([8]; H2O2 1,500 ppm, Day 3): 73 ± 3%; Relative activity (%) after exposure to hydrogen peroxide ([8]; H2O2 1,500 ppm, Day 7): 60 ± 6%; Relative activity (%) after exposure to hydrogen peroxide ([8]; H2O2 3,000 ppm, Day 0): 86 ± 6%; Relative activity (%) after exposure to hydrogen peroxide ([8]; H2O2 3,000 ppm, Day 1): 68 ± 9%; Relative activity (%) after exposure to hydrogen peroxide ([8]; H2O2 3,000 ppm, Day 2): 63 ± 4%; Relative activity (%) after exposure to hydrogen peroxide ([8]; H2O2 3,000 ppm, Day 3): 67 ± 2%; Relative activity (%) after exposure to hydrogen peroxide ([8]; H2O2 3,000 ppm, Day 7): 55 ± 3%; Relative activity (%) after exposure to hydrogen peroxide ([8]; H2O2 3,000 ppm, Day 7, listed as Am—Kr): 55%
